In patent US12714679B2, “Fullerenes to treat diseases and conditions” (The Cleveland Clinic Foundation, priority 2018, dated 2026):

B1: cystathionine γ-lyase (protein, UniProt P32929 1-405, looked up)
Cystathionine gamma-lyase: MQEKDASSQGFLPHFQHFATQAIHVGQDPEQWTSRAVVPPISLSTTFKQGAPGQHSGFEYSRSGNPTRNCLEKAVAALDGAKYCLAFASGLAATVTITHLLKAGDQIICMDDVYGGTNRYFRQVASEFGLKISFVDCSKIKLLEAAITPETKLVWIETPTNPTQKVIDIEGCAHIVHKHGDIILVVDNTFMSPYFQRPLALGADISMYSATKYMNGHSDVVMGLVSVNCESLHNRLRFLQNSLGAVPSPIDCYLCNRGLKTLHVRMEKHFKNGMAVAQFLESNPWVEKVIYPGLPSHPQHELVKRQCTGCTGMVTFYIKGTLQHAEIFLKNLKLFTLAESLGGFESLAELPAIMTHASVLKNDRDVLGISDTLIRLSVGLEDEEDLLEDLDQALKAAHPPSGSHS
notes: enzyme producing H2S from cysteine, comparator catalyst

Assays:
[1] = Lead acetate (PbA/PbS) assay, catalytic H2S production from cysteine; type: biochemical
Description: Further work was conducted as follows with regard to the catalytic production of H2S by PHFs. PHF (SJJR; 10 mg/mL) was added to a mixture of L-cysteine (10 mM) and […] (PLP; 1 mM) in a 96-well plate and then covered with a blotting paper saturated with lead acetate. After 24 hours, the lead acetate paper was removed and scanned. The lead sulfide dots were analyzed for average integrated density using ImageJ. After every 24 hours, the wells were replenished with L-cysteine (10 mM) and covered with the lead acetate paper and the lead sulfide dots were analyzed.
Lead acetate assay: The kinetics and catalysis coefficients for PHF catalyzed H2S production were determined using lead acetate assay (PbA/PbS assay) as generally described in Hine and Mitchell, “Endpoint and Kinetic Measurement of Hydrogen Sulfide Production Capacity in Tissue Extracts” Bio-Protocol, 7 (13), e2382, 2017). Briefly: Reaction mixtures (150 μL/well) containing PHF or enzyme (CGL), enzyme co-factor (PLP) and substrate (e.g., cysteine) were tested in 96-well plates Immediately after addition of catalyst, 96-well plates were covered with lead acetate saturated paper and placed inside a 37° C. cell culture incubator. At a predetermined time point, the lead acetate paper was removed and scanned, and the lead sulfide dots analyzed with ImageJ using the IntDen function. A calibration curve was prepared with different concentrations of sodium hydrosulfide plotted against the integrated density obtained on lead acetate/lead sulfide paper. The presence of pyruvic acid after reaction was confirmed in a preliminary experiment by liquid chromatography—mass spectroscopy.
To determine the steady-state kinetic parameters experiments were carried out with different initial substrate concentrations. The initial (linear) slope from the graph of H2S concentration versus time at each substrate concentration was used to determine the reaction velocity, which was plotted against initial cysteine concentrations to obtain Michaelis-Menten curves (FIGS. 5 and 6). Least squares non-linear fitting was used to determine values of Km and Vmax from the equation v=Vmax [S]/(Km+[S]).

HR-TEM size = type: physicochemical
Excerpt: FIG. 3: Panel A) a hypothetical schematic illustration of the breakdown of cysteine to hydrogen sulfide, ammonia and pyruvic acid. While the present disclosure is not limited to any particular mechanism and an understanding of the mechanism is not necessary to practice the invention, it is believed that polyhydroxy fullerenes (PHF) mimic carbon-sulfur lyases. It was found during work conducted during development of embodiments herein that PHFs catalyze the breakdown of cysteine under physiological conditions. Panel B) HR-TEM image of PHF (C60(OH)9O7Na6) showing a cluster size of 3.4±0.5 nm. Panel C) HR-TEM image of CGL showing a molecular size of 4.1±0.4 nm.

[2] = Without PLP, substrate L-Cysteine

Row | Molecule | H2S produced ([1]; PLP with cysteine, no PHF, in 24 hours) [mM] | molecular size (HR-TEM size) [nm] | H2S production at room temperature ([1]; PBS) | H2S production at 4° C. ([1]; PBS, presence or absence of PLP) | KCAT ([1]; With PLP, substrate L-Cysteine) [s⁻¹] | Km ([1]; With PLP, substrate L-Cysteine) [mM] | Vmax ([1]; With PLP, substrate L-Cysteine) [nM/s] | KCAT [1, 2] [s⁻¹] | Vmax [1, 2] [nM/s]
1 | Cc1ncc(COP(=O)(O)O)c(C=O)c1O [PLP, pyridoxal-5′-phosphate, reference compound] | 0.024 |  |  |  |  |  |  |  | 
2 | B1 |  | 4.1±0.4 | produced H2S only in presence of PLP | No H2S was produced | 130 | 25.4 | 2.9 | 5800 | 1.3
